In the data set the target is T1, IRF3 K359A (IRF3 (K359A)-his) (UniProt P70671 1-419, K359A).
T1 sequence: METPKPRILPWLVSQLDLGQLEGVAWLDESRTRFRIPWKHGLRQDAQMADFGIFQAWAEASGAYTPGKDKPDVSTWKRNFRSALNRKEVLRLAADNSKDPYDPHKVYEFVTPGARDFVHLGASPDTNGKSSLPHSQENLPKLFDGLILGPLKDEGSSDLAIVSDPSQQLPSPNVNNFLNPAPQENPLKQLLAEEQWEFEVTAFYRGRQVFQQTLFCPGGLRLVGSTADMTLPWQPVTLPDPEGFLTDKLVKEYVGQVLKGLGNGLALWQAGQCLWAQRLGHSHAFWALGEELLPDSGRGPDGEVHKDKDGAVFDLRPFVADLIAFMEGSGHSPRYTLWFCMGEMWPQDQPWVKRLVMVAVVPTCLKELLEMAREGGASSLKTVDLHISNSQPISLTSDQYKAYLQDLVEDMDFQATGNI
Put plainly: EMSA.

B1: IFN-α (Ifna4) promoter probe (dsDNA)
DNA 1: GAAAGTGAAAAGAGAATTGGAAAGC
DNA 2: GCTTTCCAATTCTCTTTTCACTTTC
As for B1, the binding result is on record as “binds”.

B2: IFN-β (Ifnb) promoter probe (dsDNA)
DNA 1: GAAAACTGAAAGGGAGAACTGAAAGT
DNA 2: ACTTTCAGTTCTCCCTTTCAGTTTTC
With B2, the binding result is on record as “binds”.
